Results on two proteins are retold here after article PMC5430844, “RRM domain of ALS/FTD-causing FUS characteristic of irreversible unfolding spontaneously self-assembles into amyloid fibrils” (Scientific Reports, 2017).

Data set [1] concerns the molecule itself. The data set is described as follows: 1D 1H NMR line broadening and intensity loss; N-terminal LC domain alone, 40 µM, 25 °C, 1 mM phosphate buffer, pH 6.8 compared with pH 5.0; non-exchangeable protons over −0.4–1.8 ppm.
Data set [2] concerns the molecule itself. The data set is described as follows: time-lapsed intrinsic UV and visible fluorescence, ThT-binding fluorescence, far-UV CD and negative-stain EM of an incubated sample; RRM alone, 40 µM in 1 mM phosphate buffer pH 6.8, incubated at 25 °C up to 12 days; EM at 3, 6 and 10 days; monomer to amyloid fibrils.

B1: FUS N-terminal low-sequence complexity (LC) domain (1–267) (domain or fragment, human, UniProt P35637 1-267, looked up)
chain: MASNDYTQQATQSYGAYPTQPGQGYSQQSSQPYGQQSYSGYSQSTDTSGYGQSSYSSYGQSQNTGYGTQSTPQGYGSTGGYGSSQSSQSSYGQQSSYPGYGQQPAPSSTSGSYGSSSQSSSYGQPQSGSYSQQPSYGGQQQSYGQQQSYNPPQGYGQQNQYNSSSGGGGGGGGGGNYGQDQSSMSSGGGSGGGYGNQDQSGGGGSGGYGQQDRGGRGRGGSGGGGGGGGGGYNRSSGGYEPRGRGGGRGGRGGMGGSDRGGFNKFGG
notes: Fused in Sarcoma/Translocated in Sarcoma (FUS), 526 residues, N-terminal LC domain, residues 1-267 (QGSY-rich prion-like region 1–165 and G-rich region 166–267); Cloned by PCR from FUS cDNA into a modified pET28a; also called N-terminal LC domain; FUS (1–267)
In the case of B1, the binding result in data set [1] was “binds”.

B2: FUS RRM domain (282–371) (domain or fragment, human, UniProt P35637 282-371, looked up)
chain: SDNNTIFVQGLGENVTIESVADYFKQIGIIKTNKKTGQPMINLYTDRETGKLKGEATVSFDDPPSAKAAIDWFDGKEFSGNPIKVSFATR
notes: Fused in Sarcoma/Translocated in Sarcoma (FUS), 526 residues, RNA-recognition motif, residues 282-371 (N-terminal residue Ser282); Cloned by PCR from FUS cDNA into a modified pET28a; The introduction gives the RRM as 285–371, but the construct used is 282–371; also called FUS (282–371); RNA-recognition motif
As to B2, the binding result in data set [2] was “binds”.
